Experimental data published in patent US20050282743A1, “Molecular interactions in cells” (Arbor Vita Corporation, priority 2001, published 2005).
Ends that are not written are not given here. * marks the point of attachment. Biotin = O=C1N[C@H]2[C@H](CS[C@H]2CCCCC(=O)*)N1

What was measured:
Assay type in all cases: binding
[1] = biological target: T1, PDZ protein (GST-PDZ fusion) (Homo sapiens, UniProt Q12923); experiment: G' assay (10 uM PL peptide), results of TABLE 7 and TABLE 12; details: PDZ PTPL-1, PDZ Domain 4
T1 construct: made in house; host or cells: E. coli (DH5alpha, BL21 or JM109)
Method in brief: (§1)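 Biotinylated PL peptides at 10 uM (vs 20 uM in G^0 assay) bound to GST-PDZ fusions; PDZ protein at 5 ug/ml unless another concentration listed. Bound peptide read as A450 nm, classified 0–5 (0 = A450 0; 5 = A450 >4 repeated).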

[2] = biological target: T2, PDZ protein (GST-PDZ fusion) (Homo sapiens, UniProt Q6P0Q8); experiment: as above
T2 construct: made in house; host or cells: E. coli (DH5alpha, BL21 or JM109)
T2 sequence (Q6P0Q8 whole entry, the tested form may be a part): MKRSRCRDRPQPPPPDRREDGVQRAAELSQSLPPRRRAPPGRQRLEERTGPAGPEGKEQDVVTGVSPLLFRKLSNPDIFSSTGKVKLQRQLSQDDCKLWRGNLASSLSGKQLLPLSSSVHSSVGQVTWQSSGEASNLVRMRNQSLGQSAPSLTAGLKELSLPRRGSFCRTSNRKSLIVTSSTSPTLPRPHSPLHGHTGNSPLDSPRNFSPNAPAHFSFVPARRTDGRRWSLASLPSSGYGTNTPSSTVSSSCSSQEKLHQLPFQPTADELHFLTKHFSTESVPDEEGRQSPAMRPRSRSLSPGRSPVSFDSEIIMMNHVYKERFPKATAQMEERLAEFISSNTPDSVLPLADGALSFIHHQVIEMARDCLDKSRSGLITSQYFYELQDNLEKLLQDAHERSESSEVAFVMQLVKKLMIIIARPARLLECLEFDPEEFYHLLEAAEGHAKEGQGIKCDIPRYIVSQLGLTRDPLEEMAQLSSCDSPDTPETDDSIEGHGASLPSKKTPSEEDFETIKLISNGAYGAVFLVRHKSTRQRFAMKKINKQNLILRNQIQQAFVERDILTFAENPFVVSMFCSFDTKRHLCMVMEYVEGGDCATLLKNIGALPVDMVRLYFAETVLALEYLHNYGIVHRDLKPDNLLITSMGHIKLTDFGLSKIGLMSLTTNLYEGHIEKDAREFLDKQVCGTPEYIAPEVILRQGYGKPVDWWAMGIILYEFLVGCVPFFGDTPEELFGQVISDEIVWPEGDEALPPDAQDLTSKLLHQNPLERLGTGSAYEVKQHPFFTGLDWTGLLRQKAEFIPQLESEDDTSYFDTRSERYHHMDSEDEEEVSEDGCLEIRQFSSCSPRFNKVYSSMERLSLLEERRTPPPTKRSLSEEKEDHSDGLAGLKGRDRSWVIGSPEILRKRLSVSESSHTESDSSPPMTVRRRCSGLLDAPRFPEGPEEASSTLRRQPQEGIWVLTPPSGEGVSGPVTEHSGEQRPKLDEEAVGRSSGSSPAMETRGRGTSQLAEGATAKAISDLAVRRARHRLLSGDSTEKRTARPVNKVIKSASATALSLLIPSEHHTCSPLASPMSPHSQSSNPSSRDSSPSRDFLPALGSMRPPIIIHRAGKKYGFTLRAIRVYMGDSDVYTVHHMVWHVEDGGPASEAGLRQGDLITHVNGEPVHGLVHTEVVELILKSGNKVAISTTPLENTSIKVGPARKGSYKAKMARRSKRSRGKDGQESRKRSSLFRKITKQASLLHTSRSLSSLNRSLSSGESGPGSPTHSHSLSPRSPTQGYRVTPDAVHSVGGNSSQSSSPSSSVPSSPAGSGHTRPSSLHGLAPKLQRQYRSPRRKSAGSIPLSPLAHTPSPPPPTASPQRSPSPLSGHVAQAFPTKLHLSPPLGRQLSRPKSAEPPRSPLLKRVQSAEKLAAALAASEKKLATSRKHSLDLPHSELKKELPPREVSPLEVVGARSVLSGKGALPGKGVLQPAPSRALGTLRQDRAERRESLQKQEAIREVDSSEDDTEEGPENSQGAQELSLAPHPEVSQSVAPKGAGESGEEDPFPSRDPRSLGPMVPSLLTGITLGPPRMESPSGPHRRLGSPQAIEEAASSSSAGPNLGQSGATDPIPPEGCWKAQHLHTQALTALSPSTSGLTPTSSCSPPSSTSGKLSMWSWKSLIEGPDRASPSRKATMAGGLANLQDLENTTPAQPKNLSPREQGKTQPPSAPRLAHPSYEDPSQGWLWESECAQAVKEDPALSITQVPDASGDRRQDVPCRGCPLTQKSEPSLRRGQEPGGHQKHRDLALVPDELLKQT
Method in brief: as §1

[3] = biological target: T3, PDZ protein (GST-PDZ fusion) (Homo sapiens, UniProt Q02410); experiment: as above
T3 construct: made in house; host or cells: E. coli (DH5alpha, BL21 or JM109)
T3 sequence (Q02410 1-837): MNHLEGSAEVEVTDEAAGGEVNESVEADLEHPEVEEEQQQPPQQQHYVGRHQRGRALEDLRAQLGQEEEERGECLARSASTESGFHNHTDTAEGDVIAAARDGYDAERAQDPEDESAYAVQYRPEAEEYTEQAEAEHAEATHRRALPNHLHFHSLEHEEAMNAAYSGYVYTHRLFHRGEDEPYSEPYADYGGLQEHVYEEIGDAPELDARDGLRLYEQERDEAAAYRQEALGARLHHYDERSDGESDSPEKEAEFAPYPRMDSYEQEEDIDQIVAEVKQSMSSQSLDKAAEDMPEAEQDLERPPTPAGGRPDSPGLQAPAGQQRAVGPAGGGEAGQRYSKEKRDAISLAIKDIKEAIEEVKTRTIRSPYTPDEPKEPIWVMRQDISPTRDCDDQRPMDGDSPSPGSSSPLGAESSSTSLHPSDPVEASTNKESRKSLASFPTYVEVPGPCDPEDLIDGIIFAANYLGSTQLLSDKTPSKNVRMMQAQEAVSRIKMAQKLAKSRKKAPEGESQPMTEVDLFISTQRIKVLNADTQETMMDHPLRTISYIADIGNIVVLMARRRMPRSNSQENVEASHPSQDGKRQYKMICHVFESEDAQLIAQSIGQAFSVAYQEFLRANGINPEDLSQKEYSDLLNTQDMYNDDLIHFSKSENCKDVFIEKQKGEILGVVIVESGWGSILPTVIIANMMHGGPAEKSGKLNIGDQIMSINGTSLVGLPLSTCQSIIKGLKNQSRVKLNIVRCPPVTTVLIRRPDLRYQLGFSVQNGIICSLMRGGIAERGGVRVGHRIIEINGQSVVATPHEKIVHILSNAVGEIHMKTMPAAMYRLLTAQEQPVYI
Method in brief: as §1

[4] = biological target: T4, PDZ protein (GST-PDZ fusion) (Homo sapiens, UniProt O75970); experiment: as above; details: PDZ MUPP-1, PDZ Domain 10
T4 construct: made in house; host or cells: E. coli (DH5alpha, BL21 or JM109)
Method in brief: as §1

[5] = biological target: T5, PDZ protein (GST-PDZ fusion) (Homo sapiens, UniProt Q13796); experiment: as above; details: PDZ hAPXL, PDZ Domain 1
T5 construct: made in house; host or cells: E. coli (DH5alpha, BL21 or JM109)
T5 sequence (Q13796 whole entry, the tested form may be a part): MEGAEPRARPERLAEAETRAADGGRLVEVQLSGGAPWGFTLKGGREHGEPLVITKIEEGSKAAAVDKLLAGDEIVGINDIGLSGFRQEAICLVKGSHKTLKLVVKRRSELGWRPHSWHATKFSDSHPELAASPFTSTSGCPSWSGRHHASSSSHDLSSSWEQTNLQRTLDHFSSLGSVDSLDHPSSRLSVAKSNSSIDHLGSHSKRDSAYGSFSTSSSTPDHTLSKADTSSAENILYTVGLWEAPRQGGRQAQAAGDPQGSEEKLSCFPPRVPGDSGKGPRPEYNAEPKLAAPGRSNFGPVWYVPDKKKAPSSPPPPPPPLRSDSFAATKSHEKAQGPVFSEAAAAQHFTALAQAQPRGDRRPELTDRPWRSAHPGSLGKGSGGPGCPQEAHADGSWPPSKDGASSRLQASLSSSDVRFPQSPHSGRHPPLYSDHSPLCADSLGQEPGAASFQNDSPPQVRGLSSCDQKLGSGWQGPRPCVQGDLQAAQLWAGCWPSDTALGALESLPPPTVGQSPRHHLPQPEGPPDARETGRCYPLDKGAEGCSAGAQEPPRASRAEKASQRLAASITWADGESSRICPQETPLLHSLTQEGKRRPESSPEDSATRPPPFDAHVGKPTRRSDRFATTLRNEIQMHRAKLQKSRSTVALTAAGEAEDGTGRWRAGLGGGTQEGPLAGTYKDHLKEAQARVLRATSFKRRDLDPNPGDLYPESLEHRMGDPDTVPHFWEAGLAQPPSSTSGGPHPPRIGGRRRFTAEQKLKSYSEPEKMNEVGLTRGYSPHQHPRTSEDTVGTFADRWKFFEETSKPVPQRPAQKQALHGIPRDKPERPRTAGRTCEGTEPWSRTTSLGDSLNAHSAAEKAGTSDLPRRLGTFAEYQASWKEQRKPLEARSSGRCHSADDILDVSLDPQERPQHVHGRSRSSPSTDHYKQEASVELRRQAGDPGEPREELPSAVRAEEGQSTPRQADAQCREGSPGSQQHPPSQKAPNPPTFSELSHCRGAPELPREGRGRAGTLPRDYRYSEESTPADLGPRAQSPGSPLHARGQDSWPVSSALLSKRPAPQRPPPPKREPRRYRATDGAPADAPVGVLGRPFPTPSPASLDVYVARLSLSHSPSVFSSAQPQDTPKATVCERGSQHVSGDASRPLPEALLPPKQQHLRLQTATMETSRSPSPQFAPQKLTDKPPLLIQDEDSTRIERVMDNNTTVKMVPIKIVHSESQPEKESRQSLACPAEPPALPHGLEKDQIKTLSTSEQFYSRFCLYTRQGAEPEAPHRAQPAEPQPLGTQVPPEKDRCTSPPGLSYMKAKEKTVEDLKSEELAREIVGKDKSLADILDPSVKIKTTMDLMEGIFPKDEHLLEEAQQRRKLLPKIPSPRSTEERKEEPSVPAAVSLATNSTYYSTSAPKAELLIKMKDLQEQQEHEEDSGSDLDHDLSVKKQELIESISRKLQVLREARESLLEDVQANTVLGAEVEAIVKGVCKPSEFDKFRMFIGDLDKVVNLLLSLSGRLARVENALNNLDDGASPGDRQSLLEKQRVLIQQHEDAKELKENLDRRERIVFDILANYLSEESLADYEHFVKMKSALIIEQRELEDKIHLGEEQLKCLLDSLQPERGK
Method in brief: as §1

[6] = biological target: T6, PDZ protein (GST-PDZ fusion) (Homo sapiens, UniProt Q99767); experiment: as above; details: PDZ X11-beta, PDZ Domain 2
T6 construct: made in house; host or cells: E. coli (DH5alpha, BL21 or JM109)
T6 sequence (Q99767 1-749): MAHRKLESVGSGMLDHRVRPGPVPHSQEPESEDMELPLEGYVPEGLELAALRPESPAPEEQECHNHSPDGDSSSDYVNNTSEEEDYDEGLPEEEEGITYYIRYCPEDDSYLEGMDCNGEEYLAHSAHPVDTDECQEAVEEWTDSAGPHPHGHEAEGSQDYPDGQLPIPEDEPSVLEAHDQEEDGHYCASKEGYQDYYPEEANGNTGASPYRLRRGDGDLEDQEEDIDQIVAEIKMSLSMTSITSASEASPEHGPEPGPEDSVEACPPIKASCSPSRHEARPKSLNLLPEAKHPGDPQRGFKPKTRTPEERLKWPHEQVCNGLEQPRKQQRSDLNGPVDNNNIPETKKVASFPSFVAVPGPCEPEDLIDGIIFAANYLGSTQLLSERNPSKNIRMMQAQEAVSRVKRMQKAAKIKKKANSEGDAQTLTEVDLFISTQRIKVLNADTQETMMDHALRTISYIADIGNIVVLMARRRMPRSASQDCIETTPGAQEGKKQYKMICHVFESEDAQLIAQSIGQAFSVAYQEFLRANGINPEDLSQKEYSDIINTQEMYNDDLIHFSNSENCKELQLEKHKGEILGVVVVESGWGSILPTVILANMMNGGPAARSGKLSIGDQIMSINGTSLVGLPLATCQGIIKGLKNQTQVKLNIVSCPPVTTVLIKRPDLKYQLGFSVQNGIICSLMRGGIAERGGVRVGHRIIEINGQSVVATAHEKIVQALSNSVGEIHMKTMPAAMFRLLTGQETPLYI
Method in brief: as §1

[7] = tested on: PDZ protein (GST-PDZ fusion); experiment: as above
Method in brief: as §1

DLG-1 = biological target: T7, DLG-1 (Homo sapiens, UniProt Q12959); experiment: G assay competition of short unlabeled peptides with biotinylated 20-mers (Example 6, TABLE 6); details: competitor 50 uM; for % binding: 100 = no competitor
T7 construct: protein spans from amino terminal end of first PDZ domain to carboxy-terminal end of third PDZ domain in frame with GST in vector; made in house; host or cells: E. coli DH5alpha
T7 sequence (Q12959 224-546 limits assumed): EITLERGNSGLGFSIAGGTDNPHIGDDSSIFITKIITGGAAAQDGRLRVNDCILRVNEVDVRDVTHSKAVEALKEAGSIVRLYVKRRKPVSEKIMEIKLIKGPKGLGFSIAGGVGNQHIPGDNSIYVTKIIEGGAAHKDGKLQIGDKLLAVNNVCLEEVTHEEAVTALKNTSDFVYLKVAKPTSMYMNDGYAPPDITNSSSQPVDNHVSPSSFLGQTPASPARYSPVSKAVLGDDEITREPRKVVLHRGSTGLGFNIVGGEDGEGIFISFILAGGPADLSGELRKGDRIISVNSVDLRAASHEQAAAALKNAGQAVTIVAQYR
Description: (§2) The potential for unlabeled 8-mers and 3-mers to compete for binding with biotinylated 20-mers to PDZ domains was examined. Interactions between a PDZ domain and two or more biotinylated peptides mimicking PDZ ligands identified through the ‘G Assay’ were used as model interactions. Short, 3 or 8 amino acid, unlabeled peptides were synthesized by standard techniques and used at variable concentrations with a set concentration of biotinylated 20-mer. Ability of both the 3-mer and 8-mer to inhibit longer peptide binding was observed, making PDZ:PL interactions an attractive target for design of small molecule or peptide therapeutics.
(§3) Peptides representing the C-terminal 3, 8 or 20 amino acids of a PDZ ligand were synthesized by standard FMOC chemistry and biotinylated if not used as an unlabeled competitor. Peptides three amino acids in length were acetylated to more properly mimic the peptide bond without introducing an amino-terminal charged group. Peptides were purified by reverse phase high performance liquid chromatography (HPLC) using a Vydac 218TP C18 Reversed Phase column having the dimensions of 10*25 mm, 5 um. Approximately 40 mg of peptide was dissolved in 2.0 ml of and aqueous solution of 49.9% acetonitrile and 0.1% Tri-Fluoro acetic acid (TFA). This solution was then injected into the HPLC machine through a […] syringe filter (Millipore). Buffers used to get a good separation are (A) distilled water with 0.1% TFA and (B) 0.1% TFA with Acetonitrile.
(§4) The G Assay was performed as described in EXAMPLE 3 with the exception that when a short competitor was used, 30 ul of competitor peptide (at twice the final concentration) was mixed with 30 ul biotinylated 20-mer (at twice the final concentration) and then added to the well.
(§5) PSD-95 and DLG-1 were incubated in the wells at 5 ug/ml as described in the G Assay protocol. Biotinylated 20-mer peptides used were 20 uM CLASP-2, 20 uM CD46, 10 uM CD95, and 10 uM KV1.3 (find sequences of peptides in TABLE 8). Competitors (unlabeled, short peptides) tested against each of the biotinylated peptides were 50 uM 8-mer of CD95, 100 uM 8-mer of CD46, 50 uM 8-mer of CLASP-2, and 1 mM and 500 uM acetylated 3-mer of CLASP-2. To deduce sequences, refer to TABLE 8. All absorbances were read at 450 nm after stopping TMB detection reaction at 30 min. Results were normalized in each group by dividing its A450 by the A450 of the PDZ/peptide binding in the absence of competitor and converting to percentage by multiplying by 100.

PSD-95 = biological target: T8, PSD-95 (Homo sapiens, UniProt P78352); experiment: as above; details: competitor 50 uM, 100 = no competitor
T8 construct: protein spans from amino terminal end of first PDZ domain to carboxy-terminal end of third PDZ domain in frame with GST in vector; made in house; host or cells: E. coli DH5alpha
T8 sequence (P78352 58-398 limits assumed): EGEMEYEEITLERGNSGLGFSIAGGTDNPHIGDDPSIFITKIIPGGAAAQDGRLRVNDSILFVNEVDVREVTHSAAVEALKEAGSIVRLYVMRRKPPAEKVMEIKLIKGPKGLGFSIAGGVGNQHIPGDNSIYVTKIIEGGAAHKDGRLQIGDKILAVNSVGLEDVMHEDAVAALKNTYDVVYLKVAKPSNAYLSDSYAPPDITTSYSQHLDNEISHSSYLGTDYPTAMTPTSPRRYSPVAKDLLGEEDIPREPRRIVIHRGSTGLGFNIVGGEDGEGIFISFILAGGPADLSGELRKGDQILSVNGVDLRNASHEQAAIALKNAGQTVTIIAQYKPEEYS
Description: as §2, §3, §4, §5

TIP-1 (GST-TIP-1) = biological target: T9, TIP-1 (GST-TIP-1) (Homo sapiens, UniProt O14907, I73S); experiment: G assay with unlabeled 8 amino acid competitor peptide (Example 4, FIGS. 2B, 2C)
T9 construct: made in house; host or cells: E. coli DH5alpha
T9 sequence (O14907 3-123 I73S): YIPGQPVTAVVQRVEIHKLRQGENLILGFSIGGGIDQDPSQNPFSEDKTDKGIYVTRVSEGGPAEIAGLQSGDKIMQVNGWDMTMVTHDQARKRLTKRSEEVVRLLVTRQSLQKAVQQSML
Procedure: FIGS. 2A, 2B and 2C show binding and competition assays with the PDZ ligands of CD95 (Fas) and Tax for the PDZ domain of TIP-1.
Upon infection, the higher affinity of Tax could preferentially bind TIP-1 protein available in the cell, removing the TIP-1 bound to CD95 (Fas) and thereby rendering the cell less able to undergo apoptosis. In order to test this, competition experiments between Tax and CD95 for TIP-1 binding were performed using the ‘G Assay’, but adding additional unlabeled competitor peptide at step 9 of the ‘G Assay’ presented in EXAMPLE 3 section D.
FIGS. 2B and 2C show the results of these experiments. The graphs show the amount of binding of the biotinylated 20 amino acid peptide in the presence of increasing concentrations of unlabeled 8 amino acid competitor.

[8] = biological target: T10, PDZ protein (GST-PDZ fusion) (Homo sapiens, UniProt Q9NR12); experiment: G' assay (10 uM PL peptide), results of TABLE 7 and TABLE 12; details: PDZ ENIGMA, PDZ Domain 1
T10 construct: made in house; host or cells: E. coli (DH5alpha, BL21 or JM109)
T10 sequence (Q9NR12 whole entry, the tested form may be a part): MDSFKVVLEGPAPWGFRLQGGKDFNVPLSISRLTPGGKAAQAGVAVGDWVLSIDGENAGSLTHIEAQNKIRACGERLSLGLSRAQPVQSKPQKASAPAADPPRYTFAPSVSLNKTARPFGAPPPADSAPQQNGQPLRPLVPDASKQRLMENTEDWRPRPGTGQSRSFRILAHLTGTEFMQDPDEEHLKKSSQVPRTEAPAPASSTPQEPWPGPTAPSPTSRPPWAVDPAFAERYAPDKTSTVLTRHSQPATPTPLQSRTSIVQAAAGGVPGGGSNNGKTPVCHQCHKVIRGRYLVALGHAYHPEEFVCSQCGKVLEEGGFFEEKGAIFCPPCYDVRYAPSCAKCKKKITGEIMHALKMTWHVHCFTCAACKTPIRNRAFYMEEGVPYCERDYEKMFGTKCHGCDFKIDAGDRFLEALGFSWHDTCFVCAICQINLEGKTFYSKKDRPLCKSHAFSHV
Method in brief: as §1

[9] = biological target: T11, PDZ protein (GST-PDZ fusion) (Homo sapiens, UniProt P50479); experiment: as above; details: PDZ LIM RIL, PDZ Domain 1
T11 construct: made in house; host or cells: E. coli (DH5alpha, BL21 or JM109)
T11 sequence (P50479 1-330): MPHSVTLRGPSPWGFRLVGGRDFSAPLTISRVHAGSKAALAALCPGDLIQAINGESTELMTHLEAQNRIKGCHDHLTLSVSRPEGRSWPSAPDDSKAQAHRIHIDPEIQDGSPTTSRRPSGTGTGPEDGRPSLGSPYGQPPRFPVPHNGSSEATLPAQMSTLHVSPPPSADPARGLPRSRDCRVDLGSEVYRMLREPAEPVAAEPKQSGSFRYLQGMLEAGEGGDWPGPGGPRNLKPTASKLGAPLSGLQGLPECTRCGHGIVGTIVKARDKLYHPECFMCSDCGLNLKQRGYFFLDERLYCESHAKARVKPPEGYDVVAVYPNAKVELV
Method in brief: as §1

[10] = biological target: T12, PDZ protein (GST-PDZ fusion) (Homo sapiens, UniProt P55196); experiment: as above; details: PDZ AF6, PDZ Domain 1
T12 construct: made in house; host or cells: E. coli (DH5alpha, BL21 or JM109)
Method in brief: as §1

[11] = biotinylated 20-mer CLASP-2 20 uM
[12] = biotinylated 20-mer KV1.3 10 uM

**Q.** Which Classification [1] does the source give for “NGGFAVDKSDTISFTQTSQF [glutamate transporter 3]” here?
**A.** 1 (A450 nm 0-1)

**Q.** And the Classification ([2]; PDZ KIAA807)?
**A.** 1 (A450 nm 0-1)

**Q.** What about the Classification ([2]; PDZ KIAA0807(S), PDZ Domain 1) of the same sequence?
**A.** 1 (A450 nm 0-1)

**Q.** And the Classification ([3]; PDZ Mint 1, PDZ Domain 1, 2)?
**A.** 1 (A450 nm 0-1)

**Q.** What about the Classification ([3]; PDZ Mint 1, PDZ Domain 2) of the same sequence?
**A.** 1 (A450 nm 0-1)

**Q.** What about the Classification [4] of the same sequence?
**A.** 1 (A450 nm 0-1)

**Q.** What about the Classification [5] of the same sequence?
**A.** 1 (A450 nm 0-1)

**Q.** What about the Classification [6] of the same sequence?
**A.** 1 (A450 nm 0-1)

**Q.** What about the Classification ([7]; PDZ BAI-1, PDZ Domain 4) of the same sequence?
**A.** 1 (A450 nm 0-1)

**Q.** Which results are given for “RNEIQSLV [CD95 8-mer, unlabeled peptide of the C-terminal 8 amino acids of CD95]”?
**A.** % binding (DLG-1; biotinylated 20-mer CD46 20 uM): 110%; % binding (DLG-1; biotinylated 20-mer CD95 10 uM): 70%; % binding (DLG-1; [11]): 73%; % binding (DLG-1; [12]): 84%; reduction of binding of CLASP-2 and CD95 labeled ligand (DLG-1; 2.5 to 5-fold excess): approximately 30%; % binding (PSD-95; biotinylated 20-mer CD46 20 uM): 100%; % binding (PSD-95; biotinylated 20-mer CD95 10 uM): 75%; % binding (PSD-95; [11]): 92%; % binding (PSD-95; [12]): 87%; concentration of unlabeled competitor it takes to compete for binding of Tax to TIP-1 (FIG. 2C) (TIP-1 (GST-TIP-1); unlabeled 8 amino acid CD95 competitor, 1 μM labeled Tax 20-mer): 100 to 500 µM; excess needed to interfere with the binding of Tax to TIP-1 (TIP-1 (GST-TIP-1); unlabeled CD95 8-mer versus labeled Tax): ~500 fold

**Q.** Which results are given for “EVIGYIEKPGVETLEDSVF (Biotin-EVIGYIEKPGVETLEDSVF) [CDW125 (modified)]”?
**A.** Classification [5]: 1 (A450 nm 0-1); Classification [8]: 1 (A450 nm 0-1)

**Q.** Which results are given for “YSATYSELEDPGEMSPPIDL (Biotin-YSATYSELEDPGEMSPPIDL) [FceRlb]”?
**A.** Classification [9]: 1 (A450 nm 0-1); Classification [5]: 1 (A450 nm 0-1); Classification [10]: 2 (A450 nm 1-2); Classification ([7]; PDZ LIM Protein, PDZ Domain 1): 2 (A450 nm 1-2); Classification [8]: 2 (A450 nm 1-2)
